This note sets out measurements from patent US12590951B2, “Culture medium and culture method for primary cells of intestinal cancer” (PRECEDO PHARMACEUTICALS CO., LTD, priority 2021, dated 2026).

This test relates to primary cells of intestinal cancer. Kind of test: Effect of single additives in Basic Medium on proliferation of primary cells of intestinal cancer (cell count). The format is cell-based, human. On the set-up: key: +: compared with the Basic Medium, the medium added with the additive(s) has the effect of promoting the proliferation of primary cells of intestinal cancer isolated from intestinal cancer tissue in at least two cases; −: the medium added with the additive(s) has the effect of inhibiting the proliferation of primary cells of intestinal cancer isolated from intestinal cancer tissue in at least one case; ∘: the medium added with the additive(s) has no significant effect on the proliferation of primary cells of intestinal cancer isolated from intestinal cancer tissue in at least two cases. The following applies: additive at the final concentration in Basic Medium; samples OE0042 and OE(E)003; 7-10 days; compared with Basic Medium. The method, then:
First, Basic Medium was prepared. The formulation of Basic Medium is: DMEM/F12 medium (purchased from Corning)+5 μM Y27632 (purchased from MCE)+5% (v/v) fetal bovine serum (purchased from Excell Bio)+100 μg/mL Primocin (purchased from InvivoGen, 0.2% (v/v), the concentration of commercial product is 50 mg/ml).
Different types of additives (see Table 1) were added to the Basic Medium to prepare the culture mediums for primary cells of intestinal cancer containing different components.
The culture mediums of different components as shown in Table 1 were added into a 48-well plate at a volume of 1 mL/well. Primary cells of intestinal cancer isolated from two cases of intestinal cancer tissues (numbered OE0042 and OE(E)003) according to the above step (2) were inoculated into the 48-well culture plate at a cell density of 3×10^4 cells/well, and were cultured at 37° C., under 5% CO2 concentration. After culturing for 7-10 days, when the cells grew to 85%, the culture medium was discarded, and 100 μL/well of 0.05% trypsin (purchased from Gibco) was used to rinse the cells once. After the trypsin was removed, 200 μL of 0.05% trypsin was added to each well. The plate was then placed in a 37° C., 5% CO2 incubator for 10 minutes, and the cells were observed under a microscope (CNOPTEC, BDS400), showing that the cells had completely digested. 300 μL of DMEM/F12 medium containing 10% serum (Excell Bio, FND500) was added to stop the digestion. 20 μL of the resultant was added into a cell counting plate (Countstar, specification: 50 pieces/box), and the total number of cells was counted with a cell counter (Countstar, IC1000). Specifically, Basic Medium without any additives was used as an experimental control, and the experimental results are shown in Table 1.

B1: KGF: medium additive from R&D (protein, UniProt P21781 32-194, looked up)
Fibroblast growth factor 7: CNDMTPEQMATNVNCSSPERHTRSYDYMEGGDIRVRRLFCRTQWYLRIDKRGKVKGTQEMKNNYNIMEIRTVAVGIVAIKGVESEFYLAMNKEGKLYAKKECNEDCNFKELILENHYNTYASAKWTHNGGEMFVALNQKGIPVRGKKTKKEQKTAHFLPMAIT
As for B1, the “Level of promoting cell proliferation” value is recorded as “∘”.

B2: R-spondin1: medium additive, R-spondin family protein from R&D (protein, UniProt Q2MKA7 21-263, looked up)
R-spondin-1: SRGIKGKRQRRISAEGSQACAKGCELCSEVNGCLKCSPKLFILLERNDIRQVGVCLPSCPPGYFDARNPDMNKCIKCKIEHCEACFSHNFCTKCKEGLYLHKGRCYPACPEGSSAANGTMECSSPAQCEMSEWSPWGPCSKKQQLCGFRRGSEERTRRVLHAPVGDHAACSDTKETRRCTVRRVPCPEGQKRRKGGQGRRENANRNLARKESKEAGAGSRRRKGQQQQQQQGTVGPLTSAGPA
B2: the “Level of promoting cell proliferation” value was “∘”.

B3: Noggin: medium additive from R&D (protein, UniProt Q13253 28-232, looked up)
Noggin: QHYLHIRPAPSDNLPLVDLIEHPDPIFDPKEKDLNETLLRSLLGGHYDPGFMATSPPEDRPGGGGGAAGGAEDLAELDQLLRQRPSGAMPSEIKGLEFSEGLAQGKKQRLSKKLRRKLQMWLWSQTFCPVLYAWNDLGSRFWPRYVKVGSCFSKRSCSVPEGMVCKPSKSVHLTVLRWRCQRRGGQRCGWIPIQYPIISECKCSC
B3: the “Level of promoting cell proliferation” value is listed as “∘”.

B4: FGF10: medium additive from sino biological (protein, UniProt O15520 38-208, looked up)
Fibroblast growth factor 10: QALGQDMVSPEATNSSSSSFSSPSSAGRHVRSYNHLQGDVRWRKLFSFTKYFLKIEKNGKVSGTKKENCPYSILEITSVEIGVVAVKAINSNYYLAMNKKGKLYGSKEFNNDCKLKERIEENGYNTYASFNWQHNGRQMYVALNGKGAPRRGQKTRRKNTSAHFLPMVVHS
Consider B4, for which the “Level of promoting cell proliferation” value is given as “−”.

B5: IL-22: medium additive from Peprotech (protein, UniProt Q9GZX6 34-179, looked up)
Interleukin-22: APISSHCRLDKSNFQQPYITNRTFMLAKEASLADNNTDVRLIGEKLFHGVSMSERCYLMKQVLNFTLEEVLFPQSDRFQPYMQEVVPFLARLSNRLSTCHIEGDDLHIQRNVQKLKDTVKKLGESGEIKAIGELDLLFMSLRNACI
Turning to B5, the “Level of promoting cell proliferation” value is given as “−”.
